B1: mCh-HsC53 [human] / GST-ATG8A [Arabidopsis thaliana] (parent complex)
chain 1: MEDHQHVPIDIQTSKLLDWLVDRRHCSLKWQSLVLTIREKINAAIQDMPESEEIAQLLSGSYIHYFHCLRILDLLKGTEASTKNIFGRYSSQRMKDWQEIIALYEKDNTYLVELSSLLVRNVNYEIPSLKKQIAKCQQLQQEYSRKEEECQAGAAEMREQFYHSCKQYGITGENVRGELLALVKDLPSQLAEIGAAAQQSLGEAIDVYQASVGFVCESPTEQVLPMLRFVQKRGNSTVYEWRTGTEPSVVERPHLEELPEQVAEDAIDWGDFGVEAVSEGTDSGISAEAAGIDWGIFPESDSKDPGGDGIDWGDDAVALQITVLEAGTQAPEGVARGPDALTLLEYTETRNQFLDELMELEIFLAQRAVELSEEADVLSVSQFQLAPAILQGQTKEKMVTMVSVLEDLIGKLTSLQLQHLFMILASPRYVDRVTEFLQQKLKQSQLLALKKELMVQKQQEALEEQAALEPKLDLLLEKTKELQKLIEADISKRYSGRPVNLMGTSL
chain 2: MAKSSFKISNPLEARMSESSRIREKYPDRIPVIVEKAGQSDVPDIDKKKYLVPADLTVGQFVYVVRKRIKLGAEKAIFVFVKNTLPPTAALMSAIYEEHKDEDGFLYMTYSGENTFG

This is an account of results in article PMC10183829 (2023).

The assay covers variants of B1. Description: microscopy-based protein-protein interaction assay (on-bead binding, confocal); 1 μM C53 protein; glutathione-sepharose beads with GST-ATG8A; read off a plot.
With chain 1 MEDHQHVPIDIQTSKLLDWLVDRRHCSLKWQSLVLTIREKINAAIQDMPESEEIAQLLSGSYIHYFHCLRILDLLKGTEASTKNIFGRYSSQRMKDWQEIIALYEKDNTYLVELSSLLVRNVNYEIPSLKKQIAKCQQLQQEYSRKEEECQAGAAEMREQFYHSCKQYGITGENVRGELLALVKDLPSQLAEIGAAAQQSLGEAIDVYQASVGFVCESPTEQVLPMLRFVQKRGNSTVYEWRTGTEPSVVERPHLEELPEQVAEDAIDAGDFGVEAVSEGTDSGISAEAAGIDAGIFPESDSKDPGGDGIDAGDDAVALQITVLEAGTQAPEGVARGPDALTLLEYTETRNQFLDELMELEIFLAQRAVELSEEADVLSVSQFQLAPAILQGQTKEKMVTMVSVLEDLIGKLTSLQLQHLFMILASPRYVDRVTEFLQQKLKQSQLLALKKELMVQKQQEALEEQAALEPKLDLLLEKTKELQKLIEADISKRYSGRPVNLMGTSL [chain 1 W269A, chain 1 W294A, chain 1 W312A], the response is roughly 0.25 normalized fluorescence.
